Measured values published in patent US20260356982 (published 2026).

T1: FLAG tag
T1 chain: DYKDDDDK

B1: V7 scFv (antibody, V domains shown)
VH: QVQLVQSGAEVKKPGASVKVSCKASGYSFTTYTMHWVRQAPGQGLEWMGYINPSSGYAAYNQKFQGRVTMTADKSTSTAYMELSSLRSEDTAVYYCAREKFYGYDYWGQGTTVTVSS
VL: DVVMTQSPDSLAVSLGERATINCKSSQSIVHRNGNTYLEWYQLKPGQPPKLLIYKVSNRFSGVPDRFSGSGSGTDFTLTISSLQAEDVAVYYCFQGSHVPYTFGGGTKLEIK
B2: V7 IgG (antibody, V domains shown)
VH: QVQLVQSGAEVKKPGASVKVSCKASGYSFTTYTMHWVRQAPGQGLEWMGYINPSSGYAAYNQKFQGRVTMTADKSTSTAYMELSSLRSEDTAVYYCAREKFYGYDYWGQGTTVTVSS
VL: DVVMTQSPDSLAVSLGERATINCKSSQSIVHRNGNTYLEWYQLKPGQPPKLLIYKVSNRFSGVPDRFSGSGSGTDFTLTISSLQAEDVAVYYCFQGSHVPYTFGGGTKLEIK
B3: V4 scFv (antibody, V domains shown)
VH: QVQLVQSGAEVKKPGASVKVSCKASGYSFTTYTIHWVRQAPGQGLEWIGYINPSSGYAAYNQKFQGRVTLTADKSTSTAYMELSSLRSEDTAVYYCAREKFYGYDYWGQGTTVTVSS
VL: DVVMTQSPDSLAVSLGERATINCKSSQSIVHRNGNTYLEWYQQKPGQPPKLLIYKVSNRFSGVPDRFSGSGSGTDFTLTISSLQAEDVAVYYCFQGSHVPYTFGGGTKLEIK
B4: V4 IgG (antibody, V domains shown)
VH: QVQLVQSGAEVKKPGASVKVSCKASGYSFTTYTIHWVRQAPGQGLEWIGYINPSSGYAAYNQKFQGRVTLTADKSTSTAYMELSSLRSEDTAVYYCAREKFYGYDYWGQGTTVTVSS
VL: DVVMTQSPDSLAVSLGERATINCKSSQSIVHRNGNTYLEWYQQKPGQPPKLLIYKVSNRFSGVPDRFSGSGSGTDFTLTISSLQAEDVAVYYCFQGSHVPYTFGGGTKLEIK
B5: V3 IgG (antibody, V domains shown)
VH: QVQLVQSGAEVKKPGASVKVSCKASGYSFTTYTIHWVRQAPGQGLEWIGYINPSSGYAAYNQKFQGRVTLTADKSTSTAYMELSSLRSEDTAVYYCAREKFYGYDYWGQGTTVTVSS
VL: DVVMTQSPDSLAVSLGERATINCKSSQSIVHRNGNTYLEWYQLKPGQPPKLLIYKVSNRFSGVPDRFSGSGSGTDFTLTISSLQAEDVAVYYCFQGSHVPYTFGGGTKLEIK
B6: V3 scFv (antibody, V domains shown)
VH: QVQLVQSGAEVKKPGASVKVSCKASGYSFTTYTIHWVRQAPGQGLEWIGYINPSSGYAAYNQKFQGRVTLTADKSTSTAYMELSSLRSEDTAVYYCAREKFYGYDYWGQGTTVTVSS
VL: DVVMTQSPDSLAVSLGERATINCKSSQSIVHRNGNTYLEWYQLKPGQPPKLLIYKVSNRFSGVPDRFSGSGSGTDFTLTISSLQAEDVAVYYCFQGSHVPYTFGGGTKLEIK
B7: Parental (mouse VH/VL, human constant regions) (antibody, V domains shown)
VH: QVQLQQSAGELARPGASVKMSCKASGYSFTTYTIHWVKQRPGQGLEWIGYINPSSGYAAYNQNFKDETTLTADKSSSTAYMQLSSLTSEDSAVYYCAREKFYGYDYWGQGTTLTVSS
VL: DVLMTQLPLSLPVSLGDQASISCRSSQSIVHRNGNTYLEWYLLKPGQSPKLLIYKVSNRFSGVPDRFSGSGSGTDFTLKISRVEAEDLGVYYCFQGSHVPYTFGGGTKLEIK

How the values were obtained:
FLAG tag [1] = target: T1, FLAG tag; assay: SPR
FLAG tag [2] = target: T1, FLAG tag; assay: SPR bivalent

Binder	Kd (FLAG tag [1]) [nM]	Kd (FLAG tag [2]) [nM]
B1	15	–
B2	–	1.3
B3	22	–
B4	–	0.91
B5	–	1
B6	19	–
B7	–	0.96
